For assay [1], the target named is T1, human CD73 expressed at the surface of cells (human, UniProt P21589 27-549).
T1 construct: T cells in the proliferation assays; also called huCD73; CD73-expressing cells
T1 sequence: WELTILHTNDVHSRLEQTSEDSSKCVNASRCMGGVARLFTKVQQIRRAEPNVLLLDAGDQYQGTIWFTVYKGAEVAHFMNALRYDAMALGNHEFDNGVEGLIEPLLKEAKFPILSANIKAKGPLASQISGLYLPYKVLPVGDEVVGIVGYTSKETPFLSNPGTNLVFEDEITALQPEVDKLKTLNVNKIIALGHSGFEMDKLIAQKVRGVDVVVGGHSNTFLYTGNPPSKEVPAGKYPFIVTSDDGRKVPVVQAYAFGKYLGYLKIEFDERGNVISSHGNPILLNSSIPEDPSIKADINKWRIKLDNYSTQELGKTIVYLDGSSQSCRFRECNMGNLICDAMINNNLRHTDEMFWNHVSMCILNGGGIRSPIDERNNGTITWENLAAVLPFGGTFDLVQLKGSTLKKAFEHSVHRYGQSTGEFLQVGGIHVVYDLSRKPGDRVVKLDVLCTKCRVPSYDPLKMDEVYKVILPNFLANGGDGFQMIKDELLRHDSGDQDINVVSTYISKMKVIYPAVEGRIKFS
As to the kind of experiment: flow cytometry titration on transfected cells expressing human CD73, PE goat anti-human IgG (H+L) detection, MFI.

Assay [2] deals with T2, human recombinant soluble CD73 protein (human, UniProt P21589 27-547).
T2 construct: also called huCD73; rhCD73
T2 sequence: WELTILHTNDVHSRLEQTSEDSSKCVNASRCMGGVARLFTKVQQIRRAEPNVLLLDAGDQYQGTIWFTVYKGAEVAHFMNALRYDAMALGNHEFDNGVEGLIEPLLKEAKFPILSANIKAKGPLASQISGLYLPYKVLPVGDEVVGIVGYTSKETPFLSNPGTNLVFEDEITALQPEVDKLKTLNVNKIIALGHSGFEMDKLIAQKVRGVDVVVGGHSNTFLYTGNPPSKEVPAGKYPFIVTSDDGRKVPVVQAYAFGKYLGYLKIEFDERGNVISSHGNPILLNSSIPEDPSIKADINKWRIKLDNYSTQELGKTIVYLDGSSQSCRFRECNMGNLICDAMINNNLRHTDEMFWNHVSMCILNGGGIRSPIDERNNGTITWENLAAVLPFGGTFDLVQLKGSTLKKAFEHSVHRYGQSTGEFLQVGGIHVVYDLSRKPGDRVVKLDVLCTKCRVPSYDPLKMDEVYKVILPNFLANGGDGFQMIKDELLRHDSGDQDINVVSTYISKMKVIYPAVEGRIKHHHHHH
As to the kind of experiment: SPR, Ab captured on Protein A, soluble huCD73 as analyte. The procedure: SPR measurements were performed on a Biacore™ T200 apparatus at 25° C. Protein-A (GE Healthcare) was immobilized on a Sensor Chip CM5 (GE Healthcare). […] The entire sensorgram sets were fitted using the 1:1 kinetic binding model. Bivalent affinities and kinetic association and dissociation rate constants are calculated.
The binding of the antibodies in Table 2 of Example 1 were tested for binding to human soluble dimeric CD73 proteins and were cloned, produced and purified. Affinity and association and dissociation constants of humanized variants were assessed by SPR analysis.
For orientation: SPR reads the build-up and loss of mass on a sensor chip optically.

Assay [3] deals with T3, cynomolgus CD73 expressed on transfected cells (cynomolgus monkey (Macaca fascicularis)).
T3 construct: cell-surface expressed on a transfected cell line; Same protein as m38, which is the recombinant soluble form; It is kept apart from m38 as the first reading kept m36 and m37 apart for human CD73; also called cynomolgus CD73 protein (cell surface); cyCD73
Briefly: flow cytometry titration on transfected cells expressing cynomolgus CD73, PE goat anti-human IgG (H+L) detection, MFI. Background: Flow cytometry measures light scatter and fluorescence of single cells or particles in a stream.

This is an account of results in patent US20220041744A1 (INNATE PHARMA, published 2022).

Positions count from the first letter of the chain named.

B1: H1L0 (antibody, human IgG1, V domains shown)
VH: QIQLVQSGAEVKKPGASVKVSCKASGYTFTSYNMYWVRQAPGQRLEWMGYIDPYNGGSSYNLTFKGRVTITRDKSASTAYMELSSLRSEDTAVYYCARGYGNYKAWFAYWGQGTLVTVSS
VL: DIQMTQSPSSLSASVGDRVTITCKASQSVSNDVAWYQQKPGKAPKLLIYYASTRYTGVPSRFSGSGSGTDFTFTISSLQPEDIATYYCQQDYSSLTFGQGTKLEIK
notes: L0 VL limits counted by alignment with L1
On to B1, for which the EC50 (read off the curve) – broadly, the midpoint of the concentration-response curve – in assay [1] is approximately 0.2 µg/mL. For the same molecule, in assay [2], the Kd (as a rule, the concentration at which binding is half-saturated) stood at 28.7 nM; the koff (commonly the first-order rate constant of dissociation) is 0.00296 s⁻¹; the kon (usually the second-order rate constant of association) is 103000 M⁻¹ s⁻¹.

B2: H3L1 (antibody, human IgG1, V domains shown)
VH: B1 VH with T28A, R44S, M48I, R67K, V68A, R72V
VL: B1 VL with S67Y
B2: the “EC50 (read off the curve)” value in assay [1] was approximately 0.3 µg/mL. Also, in assay [2], the Kd amounted to 1.8 nM, the koff was 0.00014 s⁻¹ and the kon was 78900 M⁻¹ s⁻¹.

B3: H2L0 (antibody, human IgG1, V domains shown)
VH: B1 VH with T28A, R44S, R72V
VL: B1 VL
notes: as for B1
On to B3, for which the “EC50 (read off the curve)” value in assay [3] and in assay [1] was approximately 0.2 µg/mL each time.

B4: H3L0 (antibody, human IgG1, V domains shown)
VH: B1 VH with T28A, R44S, M48I, R67K, V68A, R72V
VL: B1 VL
notes: as for B1
Regarding B4, the “EC50 (read off the curve)” value in assay [3] is approximately 0.2 µg/mL. Also, the “EC50 (read off the curve)” value in assay [1] was approximately 0.2 µg/mL. For the same molecule, in assay [2], the Kd came out at 29.4 nM, the koff worked out at 0.00797 s⁻¹ and the kon was determined as 271000 M⁻¹ s⁻¹.

B5: H4L4 (antibody, human IgG1, V domains shown)
VH: B1 VH with T28A, T30A, R44S, M48I, R67K, V68A, I70L, R72V
VL: B1 VL with I2V, S60D, S67Y, Y87F
As to B5, in assay [2], the Kd stood at 1.2 nM, the koff was 7.14e-05 s⁻¹ and the kon is 60100 M⁻¹ s⁻¹.

B6: H1L2 (antibody, human IgG1, V domains shown)
VH: B1 VH
VL: B1 VL with S60D, S67Y
On to B6, for which the “EC50 (read off the curve)” value in assay [3] was approximately 0.2 µg/mL. In addition, in assay [2], the dissociation constant Kd came out at 0.6 nM, the koff stood at 8.38e-05 s⁻¹ and the kon stood at 135000 M⁻¹ s⁻¹.

B7: H2L1 (antibody, human IgG1, V domains shown)
VH: B1 VH with T28A, R44S, R72V
VL: B1 VL with S67Y
Turning to B7, the “EC50 (read off the curve)” value in assay [1] was approximately 0.1 µg/mL. Besides, in assay [2], the Kd came to 1.4 nM, the koff worked out at 0.000118 s⁻¹ and the kon came to 83700 M⁻¹ s⁻¹.

B8: H1L1 (antibody, human IgG1, V domains shown)
VH: B1 VH
VL: B1 VL with S67Y
B8: the “EC50 (read off the curve)” value in assay [3] was approximately 0.2 µg/mL. In assay [2], the Kd worked out at 0.8 nM, the koff stood at 8.43e-05 s⁻¹ and the kon was determined as 100000 M⁻¹ s⁻¹.

B9: H4L1 (antibody, human IgG1, V domains shown)
VH: B1 VH with T28A, T30A, R44S, M48I, R67K, V68A, I70L, R72V
VL: B1 VL with S67Y
As for B9, in assay [3], the “EC50 (read off the curve)” value is approximately 0.2 µg/mL. Besides, in assay [2], the Kd was determined as 1.7 nM, the koff amounted to 0.000179 s⁻¹ and the kon is 106000 M⁻¹ s⁻¹.

B10: chimeric parental 3C12 antibody (antibody, human IgG1, V domains shown)
VH: QIQLQQSGPELVKPGASVKVSCKASGYAFASYNMNWVKQSHGKSLDWIGYIDPYNGGSSYNLTFKGKATLTVDKSSTTAYMHLNSLTSEDSAVYYCARGYGNYKAWFAYWGQGTLVTVSA
VL: DVVMTQTPKFLLVSAGDRVTITCKASQSVSNDVAWYQQKPGQSPKLLIYYASTRYTGVPDRFTGSGYGTDFTFTISTVQAEDLAVYFCQQDYSSLTFGAGTKLELK
notes: also called HPLP; parental antibody 3C12
For B10, the “EC50 (read off the curve)” value in assay [3] is approximately 0.2 µg/mL. In assay [2], the Kd amounted to 0.68 nM.
